How the values were obtained:
[1] = tested on: fibronectin (human plasma); experiment: ELISA binding of rPTRP to ECM protein; settings: rPTRP 5-20 μg/ml coated
Procedure: (§1) The wells of ELISA plates were coated with various concentration of rPTRP (5-20 μg/ml in PBS) or BSA for 1 h at 37° C. followed by ON at 4° C. Subsequently, the wells were washed with PBS, blocked with 1% BSA in PBS (2 h at 37° C.), washed again with PBST and incubated with different ECM proteins (1 μg/ml; only laminin at 0.5 μg/ml) for 2 h at 37° C. After washing again, the wells were exposed to respective anti-ECM antibodies and the appropriate enzyme-conjugated secondary antibodies to detect the bound ECM proteins.

[2] = tested on: Laminin-1 (human placenta); experiment: ELISA binding of rPTRP to ECM protein; settings: rPTRP 5-20 μg/ml coated, laminin 0.5 μg/ml
Procedure: as §1

[3] = molecular target: T1, Thrombospondin (human platelet) (Homo sapiens, UniProt P07996); experiment: ELISA binding of rPTRP to ECM protein; settings: rPTRP 5-20 μg/ml coated
T1 construct: Thrombospondin (human platelet) was from Calbiochem, EMD Biosciences Inc; purchased Calbiochem, EMD Biosciences Inc; host or cells: human platelet
Procedure: as §1

[4] = tested on: Laminin-1 (human placenta); experiment: Western blot binding of rPTRP to ECM protein; settings: ECM protein 5 μg/ml
[5] = tested on: other ECM proteins tested (fibrinogen, elastin, collagen I-IV, vitronectin); experiment: Western blot binding of rPTRP to other ECM proteins; design: species or system human; settings: data not shown
[6] = tested on: fibronectin (human plasma); experiment: Western blot binding of rPTRP to ECM protein; settings: ECM protein 5 μg/ml
[7] = tested on: anti-PTRP antibodies in sera from TB patients; experiment: Western blot of rPTRP probed with human sera; format: binding; settings: for sera showing reactivity with the ~52 kDa protein: positive/tested
[8] = molecular target: T1, Thrombospondin (human platelet); experiment: Western blot binding of rPTRP to ECM protein; settings: ECM protein 5 μg/ml
Procedure: The binding of the purified rPTRP to various ECM proteins was determined both by western blotting and ELISA (21). Laminin-1 (human placenta); fibronectin and fibrinogen (human plasma) and elastin (human lung) were obtained from Sigma; human collagen I; collagen III and collagen IV (human placenta), collagen II (human cartilage) and vitronectin (human plasma) from Chemicon International Inc. Temecula, Calif. Thrombospondin (human platelet) was from Calbiochem, EMD Biosciences Inc. and BSA (negative control) was from Promega. Western blots containing rPTRP (0.4 μg/lane) were blocked with 3% BSA in PBS and incubated with the ECM proteins (5 μg/ml) dissolved in PBS. Negative control lanes were incubated with PBS alone. The bound ECM proteins were detected with appropriate anti-ECM antibodies (anti-laminin, anti-fibronectin, anti-thrombospondin and anti-vitronectin at 1:5000; anti-fibrinogen at 1:1000; anti-Col I, Col III, Col IV and anti-elastin at 1:500; anti-Col II at 1:100) followed by appropriate enzyme-conjugated secondary antibodies (anti-rabbit IgG-AP at 1:2000; anti-goat IgG-AP at 1:3000).

T1 sequence (P07996 19-1170): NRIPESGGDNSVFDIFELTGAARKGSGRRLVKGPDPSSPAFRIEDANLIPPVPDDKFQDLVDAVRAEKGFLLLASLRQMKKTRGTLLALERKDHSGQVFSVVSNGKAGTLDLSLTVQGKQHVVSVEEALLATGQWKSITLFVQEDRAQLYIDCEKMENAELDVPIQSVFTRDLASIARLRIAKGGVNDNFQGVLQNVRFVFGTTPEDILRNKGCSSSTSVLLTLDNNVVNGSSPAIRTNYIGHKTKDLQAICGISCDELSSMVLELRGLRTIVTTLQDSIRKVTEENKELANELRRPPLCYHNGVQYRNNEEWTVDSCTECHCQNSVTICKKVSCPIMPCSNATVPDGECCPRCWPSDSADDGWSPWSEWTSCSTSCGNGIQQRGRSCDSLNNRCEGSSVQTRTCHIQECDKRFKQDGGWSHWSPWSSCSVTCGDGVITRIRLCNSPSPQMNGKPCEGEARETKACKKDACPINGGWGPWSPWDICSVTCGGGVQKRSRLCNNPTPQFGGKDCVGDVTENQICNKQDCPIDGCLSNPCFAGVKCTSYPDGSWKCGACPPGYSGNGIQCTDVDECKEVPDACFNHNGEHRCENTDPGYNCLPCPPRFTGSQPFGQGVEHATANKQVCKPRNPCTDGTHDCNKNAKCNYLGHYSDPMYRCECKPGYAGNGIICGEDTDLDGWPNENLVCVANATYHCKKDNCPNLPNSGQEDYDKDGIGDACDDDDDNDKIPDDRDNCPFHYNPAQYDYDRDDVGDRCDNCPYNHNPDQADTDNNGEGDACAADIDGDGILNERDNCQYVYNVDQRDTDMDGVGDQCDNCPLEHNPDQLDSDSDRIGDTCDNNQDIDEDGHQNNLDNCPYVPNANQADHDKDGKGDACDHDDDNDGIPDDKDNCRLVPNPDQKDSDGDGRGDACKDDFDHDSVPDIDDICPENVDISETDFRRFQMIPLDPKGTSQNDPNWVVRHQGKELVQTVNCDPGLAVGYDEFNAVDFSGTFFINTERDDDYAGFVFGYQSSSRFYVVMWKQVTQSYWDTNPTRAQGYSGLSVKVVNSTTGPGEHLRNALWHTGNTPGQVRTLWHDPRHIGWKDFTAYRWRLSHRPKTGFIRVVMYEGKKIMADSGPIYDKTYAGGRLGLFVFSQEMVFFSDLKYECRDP

B1: rPTRP: purified recombinant proline-threonine repetitive protein of Mtb (SEQ ID NO:2), GST tag cleaved (protein)
chain: MDVALGVAVTDRVARLALVDSAAPGTVIDQFVLDVAEHPVEVLTETVVGTDRSLAGENHRLVATRLCWPDQAKADELQHALQDSGVHDVAVISEAQAATALVGAAHAGSAVLLVGDETATLSVVGDPDAPPTMVAVAPVAGADATSTVDTLMARLGDQALAPGDVFLVGRSAEHTTVLADQLRAASTMRVQTPDDPTFALARGAAMAAGAATMAHPALVADATTSLPRAEAGQSGSEGEQLAYSQASDYELLPVDEYEEHDEYGAAADRSAPLSRRSLLIGNAVVAFAVIGFASLAVAVAVTIRPTAASKPVEGHQNAQPGKFMPLLPTQQQAPVPPPPPDDPTAGFQGGTIPAVQNVVPRPGTSPGVGGTPASPAPEAPAVPGVVPAPVPIPVPIIIPPFPGWQPGMPTIPTAPPTTPVTTSATTPPTTPPTTPVTTPPTTPPTTPVTTPPTTPPTTPVTTPPTTVAPTTVAPTTVAPTTVAPTTVAPATATPTTVAPQPTQQPTQQPTQQMPTQQQTVAPQTVAPAPQPPSGGRNGSGGGDLFGGF
modifications: GST tag cleaved; possible residual linker residues; Mycobacterium tuberculosis Strain H37Rv
binding to fibronectin [1]: in a dose-dependent manner | binding to laminin [2]: in a dose-dependent manner | binding to thrombospondin [3]: in a dose-dependent manner | binding to laminin [4]: showed binding | binding to other ECM proteins [5]: not with any of the other ECM proteins tested | binding to fibronectin [6]: showed binding | sera showing significant reactivity with the protein ([7]; 6 PPD+, 6 PPD- and 6 HIV+TB- subjects): none | sera showing reactivity with the ~52 kDa protein ([7]; HIV+TB+ patients): 5/6 | sera showing reactivity with the ~52 kDa protein ([7]; HIV-TB+ patients): 4/6 | binding to thrombospondin [8]: showed binding

— patent US9335325B2, “Immunodominant Mycobacterium tuberculosis peptides from cell wall proteins for early diagnosis and immunization” (priority 2008, dated 2016)
